Patent US20050203012A1

Key:
[1] = molecular target: human PTH-1 receptor (human) (UniProt Q03431); experiment: cell-based or functional assay
[2] = molecular target: human PTH-1 receptor (human) (UniProt Q03431); experiment: radioligand binding on HKRK B7 cells, no competitor, 2-8° C. for 6 hr
[3] = molecular target: human PTH-1 receptor (human) (UniProt Q03431); experiment: competition with ^125I-[Nle^8,21, Tyr^34]rat PTH-(1-34) on HKRK B7 cells

Chain of human PTH-1 receptor (human) (Q03431 27-593): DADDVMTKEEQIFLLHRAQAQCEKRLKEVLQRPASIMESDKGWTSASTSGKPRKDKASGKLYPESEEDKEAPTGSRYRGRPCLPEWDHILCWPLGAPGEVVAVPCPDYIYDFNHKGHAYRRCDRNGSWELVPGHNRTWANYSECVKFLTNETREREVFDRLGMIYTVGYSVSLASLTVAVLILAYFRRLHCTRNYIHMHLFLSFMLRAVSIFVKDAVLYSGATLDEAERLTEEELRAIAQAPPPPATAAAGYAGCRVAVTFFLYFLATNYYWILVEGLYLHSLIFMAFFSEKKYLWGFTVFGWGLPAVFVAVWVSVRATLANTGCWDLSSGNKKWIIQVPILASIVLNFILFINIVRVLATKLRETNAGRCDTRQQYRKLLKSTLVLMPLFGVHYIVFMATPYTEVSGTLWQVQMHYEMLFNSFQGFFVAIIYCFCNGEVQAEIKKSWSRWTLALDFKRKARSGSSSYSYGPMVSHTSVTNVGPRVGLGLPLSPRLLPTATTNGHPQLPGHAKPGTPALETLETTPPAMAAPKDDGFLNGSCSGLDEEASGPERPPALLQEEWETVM

Work on “[Tyr^0]hPTH-(1-34) (from UniProt P01270 32-65) (peptide)” yielded a PLC activity at 1000 nM peptide (percent of basal) [1] of 105.

For “^125I-[Nle^8,21, Tyr^34]rat PTH-(1-34) (from UniProt P04089 32-65) (peptide)”, the cell-associated radioactivity (binding), basal [2] was 25500 cpm/well.

“desamino-[Ala^1]hPTH-(1-34) (from UniProt P01270 32-65) (peptide)” gave a PLC Activity (% Basal) at 1000 nM [1] of 106 % Basal.

Work on “desamino-[Gly^1]hPTH-(1-34) (from UniProt P01270 32-65) (peptide)” yielded a PLC Activity (% Basal) at 1000 nM [1] of 108 % Basal.

“desamino-hPTHrP(1-36) (from UniProt P12272 37-72) (peptide)” showed a PLC activation at 1000 nM peptide (percent of basal) [1] of 101.

“hPTH-(1-34) (from UniProt P01270 32-65) (peptide)” gave a Cyclic AMP accumulation (% Maximum) at 0.01 nM [1] of 1.7 % Maximum, a Cyclic AMP accumulation (% Maximum) at 0.1 nM [1] of 14 % Maximum and a Cyclic AMP accumulation (% Maximum) at 1 nM [1] of 45 % Maximum. The Cyclic AMP accumulation (% Maximum) at 10 nM [1] was 93 % Maximum, the Cyclic AMP accumulation (% Maximum) at 100 nM [1] was 96 % Maximum and the Cyclic AMP accumulation (% Maximum) at 1000 nM [1] was 100 % Maximum. It also gave an EC50 of PLC activation [1] of 0.03 µM, an IP3 Formation (% Maximum) at 1000 nM [1] of 87 % Maximum and an IP3 Formation (% Maximum) at 10000 nM [1] of 100 % Maximum. The IP3 formation at maximal concentrations of hPTH-(1-34) [1] was 1910 cpm/well, the PLC Activity (% Basal) at 1000 nM [1] was 854 % Basal and the cAMP accumulation at maximal concentrations of hPTH-(1-34) (pmoles/well/15 min) [1] was 207. The cell-associated radioactivity (binding) in the presence of maximal concentrations of hPTH-(1-34) [3] was 956 cpm/well.

“hPTH-(2-34) (from UniProt P01270 33-65) (peptide)” showed a PLC Activity (% Basal) at 1000 nM [1] of 88 % Basal.

“hPTHrP(1-36) (from UniProt P12272 37-72) (peptide)” was tested, and the PLC activation at 1000 nM peptide (percent of basal) [1] was 178.
